Like-named read-outs stand apart in the source and are kept apart here.
Key:
Rat serum albumin [1] = target: T1, Rat serum albumin (rat, UniProt P02770 25-608); test: SPR, SA on chip, 1:1 fit, 25 C
T1 construct: bought; immobilised on a CM5 chip by amine coupling; also called Rat SA

[2] = target: T2, Cynomolgus monkey serum albumin (cynomolgus monkey, UniProt A2V9Z4 25-608); test: SPR, SA on chip, 1:1 fit, 25 C
T2 construct: bought; immobilised on a CM5 chip by amine coupling; also called Cyno SA

Human serum albumin [3] = target: T3, Human serum albumin (human, UniProt P02768 25-609); test: SPR, SA on chip, 1:1 fit, 25 C
T3 construct: bought; immobilised on a CM5 chip by amine coupling; also called Human SA

Mouse serum albumin [4] = target: T4, Mouse serum albumin (mouse, UniProt P07724 25-608); test: SPR, SA on chip, 1:1 fit, 25 C
T4 construct: bought; immobilised on a CM5 chip by amine coupling; also called Mouse SA

Pig serum albumin [5] = target: T5, Pig serum albumin (pig, UniProt P08835 25-607); test: SPR, SA on chip, 1:1 fit, 25 C
T5 construct: bought; immobilised on a CM5 chip by amine coupling; also called Pig SA

Dog serum albumin [6] = target: T6, Dog serum albumin (dog, UniProt P49822 25-608); test: SPR, SA on chip, 1:1 fit, 25 C
T6 construct: bought; immobilised on a CM5 chip by amine coupling; also called Dog SA

Cow serum albumin [7] = target: T7, Cow serum albumin (cow, UniProt P02769 25-607); test: SPR, SA on chip, 1:1 fit, 25 C
T7 construct: bought; immobilised on a CM5 chip by amine coupling; also called Cow SA

[8] = target: T8, human CNTF receptor (CNTFR) on IMR-32 cells (human, UniProt P26992 23-342); test: cell-based or functional assay
T8 sequence (looked up): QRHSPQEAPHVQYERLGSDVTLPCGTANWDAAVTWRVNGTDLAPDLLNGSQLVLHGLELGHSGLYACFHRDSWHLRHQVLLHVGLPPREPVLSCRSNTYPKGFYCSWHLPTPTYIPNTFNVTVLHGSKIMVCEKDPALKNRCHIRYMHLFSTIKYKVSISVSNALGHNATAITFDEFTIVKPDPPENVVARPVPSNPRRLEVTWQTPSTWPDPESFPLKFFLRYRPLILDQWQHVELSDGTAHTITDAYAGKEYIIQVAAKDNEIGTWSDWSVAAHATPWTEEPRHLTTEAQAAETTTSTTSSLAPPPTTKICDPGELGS

Rabbit serum albumin [9] = target: T9, Rabbit serum albumin (rabbit, UniProt P49065 25-608); test: SPR, SA on chip, 25 C
T9 construct: bought; immobilised on a CM5 chip by amine coupling; also called Rabbit SA

Rat serum albumin [10] = target: T1, Rat serum albumin; test: SPR, SA on chip, 1:1 fit, 25 C; remark: listed apart in the source
[11] = target: T2, Cynomolgus monkey serum albumin; test: SPR, SA on chip, 1:1 fit, 25 C; remark: listed apart in the source
Human serum albumin [12] = target: T3, Human serum albumin; test: SPR, SA on chip, 1:1 fit, 25 C; remark: listed apart in the source
Mouse serum albumin [13] = target: T4, Mouse serum albumin; test: SPR, SA on chip, 1:1 fit, 25 C; remark: listed apart in the source
Pig serum albumin [14] = target: T5, Pig serum albumin; test: SPR, SA on chip, 1:1 fit, 25 C; remark: listed apart in the source
Dog serum albumin [15] = target: T6, Dog serum albumin; test: SPR, SA on chip, 1:1 fit, 25 C; remark: listed apart in the source
Cow serum albumin [16] = target: T7, Cow serum albumin; test: SPR, SA on chip, 1:1 fit, 25 C; remark: listed apart in the source
Rabbit serum albumin [17] = target: T9, Rabbit serum albumin; test: SPR, SA on chip, 25 C; remark: listed apart in the source
[18] = target: human ErbB4 receptor (NCBI Ref. Seq. No. NP_001036064.1) (human, UniProt Q15303 26-1308); test: cell-based or functional assay
Rabbit serum albumin [19] = target: T9, Rabbit serum albumin; test: SPR, SA on chip, 25 C; remark: listed apart in the source
Rat serum albumin [20] = target: T1, Rat serum albumin; test: SPR, SA on chip, 1:1 fit, 25 C; remark: listed apart in the source
[21] = target: T2, Cynomolgus monkey serum albumin; test: SPR, SA on chip, 1:1 fit, 25 C; remark: listed apart in the source
Human serum albumin [22] = target: T3, Human serum albumin; test: SPR, SA on chip, 1:1 fit, 25 C; remark: listed apart in the source
Mouse serum albumin [23] = target: T4, Mouse serum albumin; test: SPR, SA on chip, 1:1 fit, 25 C; remark: listed apart in the source
Pig serum albumin [24] = target: T5, Pig serum albumin; test: SPR, SA on chip, 1:1 fit, 25 C; remark: listed apart in the source
Dog serum albumin [25] = target: T6, Dog serum albumin; test: SPR, SA on chip, 1:1 fit, 25 C; remark: listed apart in the source
Cow serum albumin [26] = target: T7, Cow serum albumin; test: SPR, SA on chip, 1:1 fit, 25 C; remark: listed apart in the source
Rabbit serum albumin [27] = target: T9, Rabbit serum albumin; test: SPR, SA on chip, 25 C; remark: listed apart in the source
Rat serum albumin [28] = target: T1, Rat serum albumin; test: SPR, SA on chip, 1:1 fit, 25 C; remark: listed apart in the source
[29] = target: T2, Cynomolgus monkey serum albumin; test: SPR, SA on chip, 1:1 fit, 25 C; remark: listed apart in the source
Human serum albumin [30] = target: T3, Human serum albumin; test: SPR, SA on chip, 1:1 fit, 25 C; remark: listed apart in the source
Mouse serum albumin [31] = target: T4, Mouse serum albumin; test: SPR, SA on chip, 1:1 fit, 25 C; remark: listed apart in the source
Pig serum albumin [32] = target: T5, Pig serum albumin; test: SPR, SA on chip, 1:1 fit, 25 C; remark: listed apart in the source
Dog serum albumin [33] = target: T6, Dog serum albumin; test: SPR, SA on chip, 1:1 fit, 25 C; remark: listed apart in the source
Cow serum albumin [34] = target: T7, Cow serum albumin; test: SPR, SA on chip, 1:1 fit, 25 C; remark: listed apart in the source

B1: VHH-based fusion of Example 1, VHH fusion 1 (CNTF-(G4Q)5-MC6.1C22.43) (other)
chain: MAFTEHSPLTPHRRDLASRSIWLARKIRSDLTALTESYVKHQGLNKNINLDSADGMPVASTDRWSELTEAERLQENLQAYRTFHVLLARLLEDQQVHFTPTEGDFHQAIHTLLLQVAAFAYQIEELMILLEYKIPRNEADGMPINVGDGGLFEKKLWGLKVLQELSQWTVRSIHDLRFISSHQTGGGGGQGGGGQGGGGQGGGGQGGGGQEVQLLESGGGLVQPGGSLRLSCAASGRYIDETAVAWFRQAPGKEREFVAGIGGGVDITYYADSVKGRFTISRDNSKNTLYLQMNSLRPEDTAVYYCAARPGRPLITSKVADLYPYWGQGTLVTVSSPP
notes: also called Compound 1; CNTF-VHH fusion
Kd (Rat serum albumin [1]): 83 nM
koff (Rat serum albumin [1]): 0.0063 s⁻¹
kon (Rat serum albumin [1]): 75000 M⁻¹ s⁻¹
Kd [2]: 13 nM
koff [2]: 0.00086 s⁻¹
kon [2]: 68000 M⁻¹ s⁻¹
Kd (Human serum albumin [3]): 3.2 nM
koff (Human serum albumin [3]): 0.00024 s⁻¹
kon (Human serum albumin [3]): 76000 M⁻¹ s⁻¹
Kd (Mouse serum albumin [4]): 100 nM
koff (Mouse serum albumin [4]): 0.0082 s⁻¹
kon (Mouse serum albumin [4]): 81000 M⁻¹ s⁻¹
Kd (Pig serum albumin [5]): 190 nM
koff (Pig serum albumin [5]): 0.011 s⁻¹
kon (Pig serum albumin [5]): 58000 M⁻¹ s⁻¹
Kd (Dog serum albumin [6]): 40 nM
koff (Dog serum albumin [6]): 0.0032 s⁻¹
kon (Dog serum albumin [6]): 79000 M⁻¹ s⁻¹
Kd (Cow serum albumin [7]): 820 nM
koff (Cow serum albumin [7]): 0.074 s⁻¹
kon (Cow serum albumin [7]): 91000 M⁻¹ s⁻¹
hCNTFR EC50 pM GeoMean (pSTAT3 in IMR-32 cells) [8]: 7.09 pM
binding result (Rabbit serum albumin [9]): no binding (tested: up to 1000 nM)

B2: VHH-based fusion of Example 3, VHH fusion 3 (NRG1-(G4Q)5-MC6.1C22.43) (other)
chain: SHLVKCAEKEKTFCVNGGECFMVKDLSNPSRYLCKCPNEFTGDRCQNYVMASFYKHLGIEFMEAEELYQGGGGQGGGGQGGGGQGGGGQGGGGQEVQLLESGGGLVQPGGSLRLSCAASGRYIDETAVAWFRQAPGKEREFVAGIGGGVDITYYADSVKGRFTISRDNSKNTLYLQMNSLRPEDTAVYYCAARPGRPLITSKVADLYPYWGQGTLVTVSSPP
notes: also called Compound 3; NRG1-VHH fusion
Kd (Rat serum albumin [10]): 52 nM
koff (Rat serum albumin [10]): 0.006 s⁻¹
kon (Rat serum albumin [10]): 120000 M⁻¹ s⁻¹
Kd [11]: 6.1 nM
koff [11]: 0.00087 s⁻¹
kon [11]: 140000 M⁻¹ s⁻¹
Kd (Human serum albumin [12]): 1.9 nM
koff (Human serum albumin [12]): 0.00023 s⁻¹
kon (Human serum albumin [12]): 120000 M⁻¹ s⁻¹
Kd (Mouse serum albumin [13]): 62 nM
koff (Mouse serum albumin [13]): 0.0088 s⁻¹
kon (Mouse serum albumin [13]): 140000 M⁻¹ s⁻¹
Kd (Pig serum albumin [14]): 130 nM
koff (Pig serum albumin [14]): 0.012 s⁻¹
kon (Pig serum albumin [14]): 93000 M⁻¹ s⁻¹
Kd (Dog serum albumin [15]): 19 nM
koff (Dog serum albumin [15]): 0.0032 s⁻¹
kon (Dog serum albumin [15]): 170000 M⁻¹ s⁻¹
Kd (Cow serum albumin [16]): 470 nM
koff (Cow serum albumin [16]): 0.072 s⁻¹
kon (Cow serum albumin [16]): 160000 M⁻¹ s⁻¹
binding result (Rabbit serum albumin [17]): no binding (tested: up to 1000 nM)
EC50 (ng/mL), PathHunter ErbB4/ErbB4 dimerization assay [18]: 33.5 ng/mL

B3: VHH-based fusion of Example 4, VHH fusion 4 (MC6.1C22-(G4Q)5-NRG1) (other)
chain: EVQLLESGGGLVQPGGSLRLSCAASGRYIDETAVAWFRQAPGKEREFVAGIGGGVDITYYADSVKGRFTISRDNSKNTLYLQMNSLRPEDTAVYYCAARPGRPLITSKVADLYPYWGQGTLVTVSSGGGGQGGGGQGGGGQGGGGQGGGGQSHLVKCAEKEKTFCVNGGECFMVKDLSNPSRYLCKCPNEFTGDRCQNYVMASFYKHLGIEFMEAEELYQ
notes: also called Compound 4; VHH-NRG1 fusion
binding result (Rabbit serum albumin [19]): no binding (tested: up to 1000 nM)
Kd (Rat serum albumin [20]): 3.1 nM
koff (Rat serum albumin [20]): 0.003 s⁻¹
kon (Rat serum albumin [20]): 970000 M⁻¹ s⁻¹
Kd [21]: 0.94 nM
koff [21]: 0.00063 s⁻¹
kon [21]: 680000 M⁻¹ s⁻¹
Kd (Human serum albumin [22]): 0.19 nM
koff (Human serum albumin [22]): 0.00019 s⁻¹
kon (Human serum albumin [22]): 1e+06 M⁻¹ s⁻¹
Kd (Mouse serum albumin [23]): 6.4 nM
koff (Mouse serum albumin [23]): 0.0042 s⁻¹
kon (Mouse serum albumin [23]): 660000 M⁻¹ s⁻¹
Kd (Pig serum albumin [24]): 15 nM
koff (Pig serum albumin [24]): 0.006 s⁻¹
kon (Pig serum albumin [24]): 400000 M⁻¹ s⁻¹
Kd (Dog serum albumin [25]): 2.2 nM
koff (Dog serum albumin [25]): 0.0017 s⁻¹
kon (Dog serum albumin [25]): 780000 M⁻¹ s⁻¹
Kd (Cow serum albumin [26]): 100 nM
koff (Cow serum albumin [26]): 0.058 s⁻¹
kon (Cow serum albumin [26]): 570000 M⁻¹ s⁻¹
EC50 (ng/mL), PathHunter ErbB4/ErbB4 dimerization assay [18]: 112 ng/mL

B4: VHH-based fusion of Example 2, VHH fusion 2 (MC6.1C22-(G4Q)5-CNTF) (other)
chain: EVQLLESGGGLVQPGGSLRLSCAASGRYIDETAVAWFRQAPGKEREFVAGIGGGVDITYYADSVKGRFTISRDNSKNTLYLQMNSLRPEDTAVYYCAARPGRPLITSKVADLYPYWGQGTLVTVSSGGGGQGGGGQGGGGQGGGGQGGGGQMAFTEHSPLTPHRRDLASRSIWLARKIRSDLTALTESYVKHQGLNKNINLDSADGMPVASTDRWSELTEAERLQENLQAYRTFHVLLARLLEDQQVHFTPTEGDFHQAIHTLLLQVAAFAYQIEELMILLEYKIPRNEADGMPINVGDGGLFEKKLWGLKVLQELSQWTVRSIHDLRFISSHQTG
notes: also called Compound 2; VHH-CNTF fusion
binding result (Rabbit serum albumin [27]): no binding (tested: up to 1000 nM)
hCNTFR EC50 pM GeoMean (pSTAT3 in IMR-32 cells) [8]: 8.39 pM
Kd (Rat serum albumin [28]): 6.1 nM
koff (Rat serum albumin [28]): 0.003 s⁻¹
kon (Rat serum albumin [28]): 490000 M⁻¹ s⁻¹
Kd [29]: 1.2 nM
koff [29]: 0.0006 s⁻¹
kon [29]: 500000 M⁻¹ s⁻¹
Kd (Human serum albumin [30]): 0.58 nM
koff (Human serum albumin [30]): 0.00025 s⁻¹
kon (Human serum albumin [30]): 430000 M⁻¹ s⁻¹
Kd (Mouse serum albumin [31]): 8.8 nM
koff (Mouse serum albumin [31]): 0.0042 s⁻¹
kon (Mouse serum albumin [31]): 480000 M⁻¹ s⁻¹
Kd (Pig serum albumin [32]): 19 nM
koff (Pig serum albumin [32]): 0.0057 s⁻¹
kon (Pig serum albumin [32]): 300000 M⁻¹ s⁻¹
Kd (Dog serum albumin [33]): 3.7 nM
koff (Dog serum albumin [33]): 0.0017 s⁻¹
kon (Dog serum albumin [33]): 460000 M⁻¹ s⁻¹
Kd (Cow serum albumin [34]): 110 nM
koff (Cow serum albumin [34]): 0.052 s⁻¹
kon (Cow serum albumin [34]): 460000 M⁻¹ s⁻¹
